According to patent publication US20250205324A1, “ANTIGENIC PEPTIDES FOR PREVENTION AND TREATMENT OF CANCER” (ENTEROME S.A., priority 2022, published 2025):

Molecular target: T1, HLA-A*0201 molecule expressed on human T2 cells (human)
T1 construct: surface HLA-A2 detected with anti-HLA-A2-PE (clone REA517); also called HLA-A2
Assay: T2 cell HLA-A*0201 binding assay, anti-HLA-A2-PE flow cytometry
Experimental: T2 cells (5·10⁴ cells per well) are incubated with decreasing concentrations of peptides from 100 μM to 0.1 μM (4 points: 100 μM, 10 μM, 1 μM, 0.1 μM) in serum-free medium (TexMacs) supplemented with 100 ng/μl of 2 Microglobulin at 37° C. for 16 hours. Cells are then washed two times and marked with the anti-HLA-A2 antibody coupled to PE (clone REA517, Miltenyi).
For each peptide concentration, the geometric mean of the labelling associated with the peptide of interest is subtracted from background noise and reported as a percentage of the geometric mean of the HLA-A*0202 labelling obtained for the reference peptide HIV pol 589-597 at a concentration of 100 μM.

| Binder | concentration of peptide that induces 20% of HLA-A2 expression [µM] | in vitro binding affinity (relative affinity, normalized against HIV-pol) | mean relative fluorescence intensity at 0.1 µM peptide | mean relative fluorescence intensity at 1 µM peptide | mean relative fluorescence intensity at 10 µM peptide | mean relative fluorescence intensity at 100 µM peptide |
| --- | --- | --- | --- | --- | --- | --- |
| ILLSIQSLL [UBE2C-H2] | 3.27 | 3.5 ratio to HIV pol reference peptide | 2.1 % of HIV pol reference peptide | 8.5 % of HIV pol reference peptide | 32.7 % of HIV pol reference peptide | – |
| SLLSIQSYV (also called ENT172_B1) [UBE2C-B2] | 0.22 | 0.2 ratio to HIV pol reference peptide | 14.2 % of HIV pol reference peptide | 52 % of HIV pol reference peptide | 92 % of HIV pol reference peptide | – |
| ALYDVRTILL (also called UBEC2-H11; ENT168-HL) [UBE2C-H11] | 14.9 | 8.7 ratio to HIV pol reference peptide | 4.2 % of HIV pol reference peptide | -2.3 % of HIV pol reference peptide | 8.9 % of HIV pol reference peptide | 135 % of HIV pol reference peptide |
| LILDTVHSL (also called ENT174_B1) [ANKRD30A-B2] | 1.13 | 1.3 ratio to HIV pol reference peptide | 1.7 % of HIV pol reference peptide | 12.4 % of HIV pol reference peptide | 72 % of HIV pol reference peptide | 90.8 % of HIV pol reference peptide |
| FLYDVRTYL (also called ENT168_B1; ENT_168-B1) [UBE2C-B1] | – | 3.1 ratio to HIV pol reference peptide | – | – | – | – |
| SLPDRILTV (also called ENT204_B1; ENT_204-B1) [CDC20-B1] | – | 0.6 ratio to HIV pol reference peptide | – | – | – | – |
| QMNPELLTL (also called ENT207_B2) [KIF2C-B11] | – | 3.9 ratio to HIV pol reference peptide | – | – | – | – |
| ALIFGQLLL (also called ENT205_B1; ENT_205-B1) [TOP2A-B2] | 1.79 | 2.9 ratio to HIV pol reference peptide | 3.4 % of HIV pol reference peptide | 5.5 % of HIV pol reference peptide | 73.6 % of HIV pol reference peptide | 146 % of HIV pol reference peptide |
| ALIFGQLLT (also called ENT205-H) [TOP2A-H2] | – | – | 5.1 % of HIV pol reference peptide | 0.3 % of HIV pol reference peptide | 3.2 % of HIV pol reference peptide | 0 % of HIV pol reference peptide |
| ALYDVRTIL (also called ENT168-H) [UBE2C-H1] | 15 | 8.8 ratio to HIV pol reference peptide | 3.8 % of HIV pol reference peptide | -0.2 % of HIV pol reference peptide | 6.8 % of HIV pol reference peptide | 134 % of HIV pol reference peptide |
| SLPDRILDA (also called ENT204-H) [CDC20-H1] | – | 6.3 ratio to HIV pol reference peptide | – | – | – | – |
| KVWSDVTPL [MMP11-H1] | 0.65 | 0.6 ratio to HIV pol reference peptide | – | 24.9 % of HIV pol reference peptide | 72.7 % of HIV pol reference peptide | 82.5 % of HIV pol reference peptide |
| ALNPELLAL (also called ENT207_B1; ENT_207-B1) [KIF2C-B1] | – | 1.6 ratio to HIV pol reference peptide | – | – | – | – |
| AQIGIVAVV [OR51E2-H1] | 5.68 | 6.2 ratio to HIV pol reference peptide | 0 % of HIV pol reference peptide | 4 % of HIV pol reference peptide | 32 % of HIV pol reference peptide | – |
| IVWSDVTYV (also called ENT187_B1) [MMP11-B1] | 0.08 | 0.07 ratio to HIV pol reference peptide | 19.8 % of HIV pol reference peptide | 73.3 % of HIV pol reference peptide | 97.1 % of HIV pol reference peptide | 80.2 % of HIV pol reference peptide |
| YLYDVRTAL (also called ENT168_B2) [UBE2C-B11] | 0.87 | 0.7 ratio to HIV pol reference peptide | 6.6 % of HIV pol reference peptide | 22.2 % of HIV pol reference peptide | 68.4 % of HIV pol reference peptide | 87.5 % of HIV pol reference peptide |
| AINPELLQL (also called ENT207-H) [KIF2C-H1] | 22.6 | 31.1 ratio to HIV pol reference peptide | 0 % of HIV pol reference peptide | 0.4 % of HIV pol reference peptide | 9.5 % of HIV pol reference peptide | 64.9 % of HIV pol reference peptide |
| YLQQELMNL (also called ENT178_B1) [UBE2C-B3] | 0.14 | – | – | – | – | – |
| AVYSEILSV (also called ENT169-H) [ANKRD30A-H1] | 0.65 | – | – | – | – | – |
| VLNPELLML (also called ENT207_B4) [KIF2C-B13] | 0.189 | 0.8 ratio to HIV pol reference peptide | 10.5 % of HIV pol reference peptide | 42.1 % of HIV pol reference peptide | 45.3 % of HIV pol reference peptide | 50.3 % of HIV pol reference peptide |
| RLQQELMTL [UBE2C-H3] | 1.06 | 1.1 ratio to HIV pol reference peptide | 1.3 % of HIV pol reference peptide | 12.3 % of HIV pol reference peptide | 71.5 % of HIV pol reference peptide | 82.4 % of HIV pol reference peptide |
| ALYSEILTV (also called ENT169_B1; ENT_169-B1) [ANKRD30A-B1] | 0.05 | 0.04 ratio to HIV pol reference peptide | 33.3 % of HIV pol reference peptide | 77.2 % of HIV pol reference peptide | 93.7 % of HIV pol reference peptide | 88.2 % of HIV pol reference peptide |
| AVIGIVAAV (also called ENT190_B1) [OR51E2-B1] | 0.7 | 0.8 ratio to HIV pol reference peptide | 3.5 % of HIV pol reference peptide | 25.4 % of HIV pol reference peptide | 59.3 % of HIV pol reference peptide | – |
| VMNPELLLL (also called ENT207_B3) [KIF2C-B12] | 0.258 | 1.1 ratio to HIV pol reference peptide | 9.8 % of HIV pol reference peptide | 41.4 % of HIV pol reference peptide | 84.7 % of HIV pol reference peptide | 67.7 % of HIV pol reference peptide |
